# Data published in article PMC5666004.
# Legend:
# [1] = molecular target: Htt-N20-GB1 (N-terminal 20-residue fragment of Htt with GB1 fused at the C terminus) (UniProt P42858); test: NMR titration; 15N-labelled Htt-N20-GB1 or mutants (50 μM) titrated with HSP90 constructs or HSP70; [1H,15N] HSQC peak intensities; 20 mM phosphate, 50 mM NaCl, pH 6.5, 25 °C
# Htt-N20^S13P-GB1 = Htt-N20^S13P-GB1 (UniProt P42858); test: as above
# [2] = molecular target: HSP90-MC (residues 236–696) (UniProt P07900); test: SEC; Superdex-200 Increase 10/300 GL, ~100 μM protein loaded; 20 mM phosphate, 50 mM NaCl, pH 6.5; apparent molecular weights from calibration with standard proteins
average relative peak intensity of the Htt-N20 moiety at a 1:1 ratio [1],average relative peak intensity of the Htt-N20 moiety at a 1:1 ratio (Htt-N20^S13P-GB1),stoichiometry N [2],Substance
0.59,0.86,,HSP90(1–696) (from UniProt P07900 1-696) (domain or fragment)
,,2,HSP90-MC (residues 236–696) (from UniProt P07900 236-696) (domain or fragment)
